Measured values as given in the Human Domainome abundance scans (Beltran et al. 2025).

B1: Protein C-ets-1, residues 55 to 135; numbered along this chain, P14921 (parent)
chain: GFTKEQQRLGIPKDPRQWTETHVRDWVMWAVNEFSLKGVDFQKFCMNGAALCALGKDCFLELAPDFVGDILWEHLEILQKE

Variants of: B1
Test: abundance fitness (aPCA) (normalised: wild type 0, dead -1); higher = more abundant; growth selection in yeast, the domain comes from the species named
Conditions: Homo sapiens

Abundance fitness: each site, then its substitutions
T21: W -0.196 | Y 0.043 | F -0.11 | C -0.089 | S -0.016 | V -0.041 | L -0.064 | Q 0.002 | H -0.067 | I -0.143 | D 0.081 | A 0.002 | G -0.008 | K -0.022 | E -0.073 | R 0.039 | M -0.058
M28: R -0.004 | N 0.054 | L -0.022 | V 0.009 | Y -0.153 | G -0.055 | C -0.006 | P -0.88 | F -0.088 | S 0.017 | I 0.006 | T 0.07 | Q 0.014 | E 0.005 | K -0.016 | A -0.026 | W -0.11
R24: C -0.111 | S -0.152 | M 0.023 | N -0.062 | P -1.03 | K 0.096 | Q -0.039 | L -0.05 | D -0.827 | Y -0.152 | H 0.051 | W -0.3 | A -0.087 | I -0.133 | V -0.059 | E -0.275 | T -0.087 | F -0.287
V31: I -0.053 | L -0.326 | K -0.18 | A 0.018 | E -0.19 | Q -0.126 | R -0.274 | N -0.401 | S -0.076 | C -0.013 | D -0.491 | F -0.645 | M -0.069 | H -0.495 | G -0.427 | Y -0.44 | T 0.006
D25: H 0.041 | L 0.016 | G -0.038 | K -0.005 | Q -0.003 | Y -0.027 | R -0.023 | M -0.061 | W -0.05 | F -0.124 | E 0.06 | V -0.061 | C -0.01 | S -0.008 | P -0.973 | T -0.038 | A 0.014 | I -0.033
W26: P -0.861 | G -0.895 | V -0.863 | S -0.968 | I -1.1 | K -0.727 | F -0.213 | E -0.84 | H -0.822 | D -0.668 | R -0.934 | T -0.954 | C -0.662 | N -0.865 | L -0.966 | A -0.845 | M -0.898 | Y -0.281
Q17: Y -0.154 | I -0.114 | L -0.088 | P -0.983 | R -0.058 | G -0.159 | A 0.013 | M 0.014 | H -0.115 | V 0.002 | D 0.016 | F -0.1 | T 0.033 | C -0.034 | E 0.046 | W -0.148 | N -0.021
E20: K -0.036 | C -0.105 | D -0.107 | M -0.078 | I -0.128 | T -0.036 | G -0.264 | W -0.463 | N -0.114 | V -0.019 | L -0.209 | Q -0.021 | F -0.396 | P -0.059 | Y -0.224 | A -0.035
W29: I -0.803 | C -0.364 | N -0.586 | Q -0.59 | R -0.489 | S -0.395 | D -0.685 | V -0.767 | A -0.415 | K -0.659 | E -0.561 | T -0.515 | G -0.492
V23: R -0.686 | W -0.822 | H -0.838 | E -1.03 | K -0.904 | I -0.438 | P -0.985 | T -0.126 | G -0.967 | D -0.906 | M -0.916 | Y -0.955 | S -0.48 | C -0.559 | Q -0.909 | L -0.728 | A -0.631 | N -0.858 | F -0.857
N32: P -0.49 | E -0.042 | R 0.019 | L -0.179 | Q 0.003 | M -0.119 | S -0.008 | F -0.399 | G -0.018 | D 0.046 | C -0.132 | H 0.032 | I -0.193 | A -0.001 | K 0.028
D14: W -0.661 | G -0.844 | I -0.76 | R -0.684 | Y -0.407 | E -0.172 | F -0.443 | P -0.813 | N -0.122 | M -0.52 | L -0.552 | C -0.152 | S -0.339 | V -0.602 | H -0.155 | K -0.547 | T -0.62 | A -0.533 | Q -0.356
K13: P 0.023 | W -0.117 | M -0.086 | Q -0.059 | V -0.1 | T -0.064 | I -0.022 | Y -0.249 | N 0.008 | R -0.077 | H -0.04 | L -0.065
W18: N -0.965 | T -0.999 | A -0.967 | Q -0.899 | H -1.05 | E -0.814 | L -0.954 | M -1.08 | K -1.01 | V -0.891 | D -0.962 | R -0.733 | G -0.992 | F -1.11 | C -0.785
P15: H -0.791 | L -0.281 | T -0.498 | Q -0.838 | M -0.286 | F -0.935 | W -0.685 | S -1.02 | G -0.845 | C -0.254 | K -0.813 | N -0.717 | V -0.1 | D -1.15 | Y -1.07 | I -0.064 | A -0.351 | E -0.974
R16: G -0.108 | Y -0.049 | E -0.01 | C -0.04 | N 0.031 | L -0.025 | F -0.024 | D -0.147 | A -0.009 | S -0.096 | V -0.055 | Q -0.006 | W -0.107 | M -0.029 | I -0.038 | P -0.643
H22: G -0.565 | K -1.07 | S -0.472 | E -0.062 | N 0.023 | I -0.881 | Q -0.063 | V -0.673 | C -0.801 | Y -0.625 | T -0.528 | L -0.687 | A -0.33 | D -0.047 | W -0.904 | R -0.818 | P -0.85 | F -0.965 | M -0.18
V27: S -0.841 | C -0.18 | L -0.013 | P -0.86 | W -0.625 | F -0.214 | D -0.887 | N -0.796 | H -0.931 | K -0.983 | G -0.739 | M -0.045 | I -0.003 | Y -0.992 | R -0.876 | E -1 | A -0.2
A30: W -0.195 | L -0.187 | K -0.366 | I -0.196 | T 0.003 | E -0.032 | P -0.8 | R -0.643 | F -0.187 | D -0.671 | C -0.02 | N -0.108 | M -0.008 | Q -0.183 | H -0.107 | Y -0.188 | S -0.062 | G -0.197
T19: W -0.945 | I -0.705 | N -0.16 | E -0.155 | Y -0.642 | L -0.376 | R -0.205 | S -0.052 | H -0.153 | Q -0.228 | P -0.936 | C -0.221 | F -0.858 | M -0.345 | V -0.635
